Our source for the koff and kon values is patent US20260055180A1.

For the test, the target named is murine DLL3.HIS (IPA custom, amino acid 25-477) (mouse) (UniProt O88516). The test is described as follows: BLI (Octet), captured on AHC sensor, antigen in solution.
murine DLL3.HIS (IPA custom, amino acid 25-477) (mouse), sequence (O88516 25-477 limits assumed, form in doubt): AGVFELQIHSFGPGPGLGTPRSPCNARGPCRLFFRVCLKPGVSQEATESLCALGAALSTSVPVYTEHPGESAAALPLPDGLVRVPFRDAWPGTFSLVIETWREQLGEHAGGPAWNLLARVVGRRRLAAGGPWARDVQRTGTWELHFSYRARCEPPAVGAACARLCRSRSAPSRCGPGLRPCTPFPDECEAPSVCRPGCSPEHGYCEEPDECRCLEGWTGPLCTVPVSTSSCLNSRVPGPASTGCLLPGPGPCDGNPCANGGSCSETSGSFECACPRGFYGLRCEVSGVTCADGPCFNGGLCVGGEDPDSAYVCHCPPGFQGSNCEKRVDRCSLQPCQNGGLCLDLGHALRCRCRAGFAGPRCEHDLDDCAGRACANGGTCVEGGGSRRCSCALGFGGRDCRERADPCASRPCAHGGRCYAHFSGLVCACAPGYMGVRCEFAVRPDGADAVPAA

B1: DLL3 VHH (Fc fusion, not shown: small tags and cut ends; a dimerising Fc or GST)
chain: EVQLVESGGGEVQPGGSLRLSCAASGSIFSINAMGWYRQAPGKQRELVAGFTGDTNTIYAESVKGRFTISRDNAKNTVYLQMSSLRAEDTAVYYCAADVQLFSRDYEFYWGQGTLVTVKP
Molecule B1 displayed a koff of 0.000267 s⁻¹ and a kon of 215000 M⁻¹ s⁻¹.
